Where two headings read alike, the source gives them in different places.
T1: Human-TNFR2-His (human, UniProt P20333 23-257)
T1 construct: Bought protein; also called human TNFR2 protein; TNFR2 protein; not shown: His tag
T1 sequence (looked up): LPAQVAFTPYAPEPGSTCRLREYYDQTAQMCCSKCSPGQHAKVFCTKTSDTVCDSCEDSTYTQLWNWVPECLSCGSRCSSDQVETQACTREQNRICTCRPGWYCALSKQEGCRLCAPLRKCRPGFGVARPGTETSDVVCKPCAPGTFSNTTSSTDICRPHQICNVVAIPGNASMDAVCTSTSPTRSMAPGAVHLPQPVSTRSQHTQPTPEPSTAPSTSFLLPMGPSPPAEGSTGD

T2: Human TNFR2 mFc (human, UniProt P20333 23-257)
T2 construct: Bought protein; not shown: mFc
T2 sequence (looked up): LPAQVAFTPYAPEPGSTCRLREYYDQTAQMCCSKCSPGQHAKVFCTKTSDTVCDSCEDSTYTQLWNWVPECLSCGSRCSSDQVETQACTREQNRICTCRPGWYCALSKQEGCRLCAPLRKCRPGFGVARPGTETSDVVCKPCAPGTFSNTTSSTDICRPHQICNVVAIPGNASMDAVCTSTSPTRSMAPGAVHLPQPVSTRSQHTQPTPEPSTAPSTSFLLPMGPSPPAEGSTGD

B1: Antibody N (bispecific antibody, human IgG1, kappa)
light: EVQLVESGGGLVQPGGSLRLSCAASGSRLDYYAVAWFRQAPGKEREEVSCITYSGGSTNYAESVKGRFTISRDNSKNTLYLQMNSLRAEDTAVYYCTTEPYGSSCPLSGYDTWGQGTLVTVSSGGGGSGGGGSGGGGSDIQMTQSPSSLSASLGDRVTISCSASQGISNYLNWYQQKPDGTVKLLIYYTSTLHSGVPSRFSGSGSGTDYTLTISSLQPEDIATYYCQQYSKLPWTFGGGTKLEIKRTVAAPSVFIFPPSDEQLKSGTASVVCLLNNFYPREAKVQWKVDNALQSGNSQESVTEQDSKDSTYSLSSTLTLSKADYEKHKVYACEVTHQGLSSPVTKSFNRGEC
heavy: not shown
notes: IgG1 subtype; full-length 4-1BB antibody with TNFR2 VHH at the N-terminus of the light chains
B2: Antibody K (bispecific antibody, human IgG1, kappa)
light: DIQMTQSPSSLSASLGDRVTISCSASQGISNYLNWYQQKPDGTVKLLIYYTSTLHSGVPSRFSGSGSGTDYTLTISSLQPEDIATYYCQQYSKLPWTFGGGTKLEIKRTVAAPSVFIFPPSDEQLKSGTASVVCLLNNFYPREAKVQWKVDNALQSGNSQESVTEQDSKDSTYSLSSTLTLSKADYEKHKVYACEVTHQGLSSPVTKSFNRGECGGGGSGGGGSEVQLVESGGGLVQPGGSLRLSCAASGSRLDYYAVAWFRQAPGKEREEVSCITYSGGSTNYAESVKGRFTISRDNSKNTLYLQMNSLRAEDTAVYYCTTEPYGSSCPLSGYDTWGQGTLVTVSS
heavy: not shown
notes: IgG1 subtype; full-length 4-1BB antibody with TNFR2 VHH at the C-terminus of the light chains
B3: Antibody G (bispecific antibody, human IgG1, kappa)
light: DIVMTQSPATLSVSPGERATLSCKASQNVGSNVDWYQQKPGQSPRVLIYKASIRYTGIPARFSGSGSGTEFTLTISILQSEDFAVYFCMQSKSYPITFGQGTKLEIKRTVAAPSVFIFPPSDEQLKSGTASVVCLLNNFYPREAKVQWKVDNALQSGNSQESVTEQDSKDSTYSLSSTLTLSKADYEKHKVYACEVTHQGLSSPVTKSFNRGEC
heavy: not shown
notes: IgG1 subtype; full-length TNFR2 antibody with 4-1BB scFv at the N-terminus of the heavy chains
B4: Antibody E2 (bispecific antibody, human IgG4 S228P, kappa)
light: DIVMTQSPATLSVSPGERATLSCKASQNVGSNVDWYQQKPGQSPRVLIYKASIRYTGIPARFSGSGSGTEFTLTISILQSEDFAVYFCMQSKSYPITFGQGTKLEIKRTVAAPSVFIFPPSDEQLKSGTASVVCLLNNFYPREAKVQWKVDNALQSGNSQESVTEQDSKDSTYSLSSTLTLSKADYEKHKVYACEVTHQGLSSPVTKSFNRGEC
heavy: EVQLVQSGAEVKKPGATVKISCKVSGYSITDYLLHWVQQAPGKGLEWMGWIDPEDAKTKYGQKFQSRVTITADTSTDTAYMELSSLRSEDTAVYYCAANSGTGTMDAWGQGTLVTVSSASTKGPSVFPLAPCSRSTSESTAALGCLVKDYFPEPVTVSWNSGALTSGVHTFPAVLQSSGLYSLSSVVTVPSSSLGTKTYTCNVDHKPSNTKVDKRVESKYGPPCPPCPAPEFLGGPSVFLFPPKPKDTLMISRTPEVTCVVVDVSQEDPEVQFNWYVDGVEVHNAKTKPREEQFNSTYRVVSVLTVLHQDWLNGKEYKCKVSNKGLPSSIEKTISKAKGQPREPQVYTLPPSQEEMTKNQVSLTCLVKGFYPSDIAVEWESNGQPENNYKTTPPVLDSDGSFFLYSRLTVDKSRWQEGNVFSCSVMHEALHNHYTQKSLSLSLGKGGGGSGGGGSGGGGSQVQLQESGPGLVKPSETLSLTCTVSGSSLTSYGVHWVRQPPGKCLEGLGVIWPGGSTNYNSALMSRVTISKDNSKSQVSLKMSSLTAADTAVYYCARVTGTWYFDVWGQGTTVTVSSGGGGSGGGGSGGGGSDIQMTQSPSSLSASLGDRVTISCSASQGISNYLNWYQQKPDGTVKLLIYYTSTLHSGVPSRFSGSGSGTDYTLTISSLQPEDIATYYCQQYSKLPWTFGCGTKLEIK
notes: IgG4 subtype; same order as E1

Assays:
[1] = target: T1, Human-TNFR2-His; test: ELISA: Human-TNFR2-His coated (0.1 ug/mL), antibody titrated, goat anti-human IgG Fc detection (Example 2)
Procedure: (§1) Human-TNFR2-His (manufacturer: SINO, CAT: 10417-H08H, LOT: LC15NO0412) was diluted to 0.1 μg/mL with a coating solution (1×PBS, pH7.4), and coated in 96-well ELISA plate at 100 µL/well overnight at 4° C. The coating solution was poured off. Each well was washed with 1×PBST at 300 μL, washed 4 times with a plate washer, and patted dry on a flat paper. It was blocked with 3% skim milk powder at 300 μL/well, and incubated at 37° C. for 1 h. The blocking solution was poured off, washed 4 times with a plate washer, and patted dry on a flat paper. Negative control and positive control were set up. […] The positive control and antibody were diluted to 10 μg/mL with 3% skim milk powder as the starting concentration, and then diluted by 3-fold gradient (11 gradients in total), and a blank well was set up and only the diluent was added. It was incubated at 37° C. for 1 h at 100 μL/well. The liquid in the well was discarded, washed 4 times with a plate washer, and patted dry on a flat paper. Goat anti-human IgG Fc was diluted with 3% skim milk powder at 1:10000, and incubated at 37° C. for 1 h at 100 μL/well. It was washed 6 times with a plate washer, and patted dry on a flat paper. TMB color developing solution was added at 100 μL/well, and wrapped with aluminum foil. Color development was performed at 37° C. in the dark for 8 min. Termination solution 1M HCl was added to terminate the color development reaction at 100 μL/well. Readings were taken at 450 nm on an ELISA reader.

[2] = target: T3, Human 4-1BB His (human, UniProt Q07011 24-186); test: ELISA: Human 4-1BB His coated (0.2 ug/mL), antibody titrated, goat anti-human IgG Fc detection (Example 3)
T3 construct: Bought protein; lots 198-2146F1-W6 and 2407c-214FF1-YC; also called human 4-1BB protein; 4-1BB protein; not shown: His tag
Procedure: (§2) Human 4-1BB His (manufacturer: Acro, CAT: 41B-H5258, LOT: 198-2146F1-W6) was diluted to 0.2 μg/mL with a coating solution (1×PBS, pH7.4), and coated in 96-well ELISA plate at 100 μL/well overnight at 4° C. The coating solution was poured off. Each well was washed with 1×PBST at 300 μL, washed 4 times with a plate washer, and patted dry on a flat paper. It was blocked with 3% skim milk powder at 300 μL/well, and incubated at 37° C. for 1 h. The blocking solution was poured off, washed 4 times with a plate washer, and patted dry on a flat paper. Negative control and positive control were set up. […] The variable region of the antibody sequence of the positive control consists of SEQ ID NO: 15 and SEQ ID NO: 19, with the addition of the constant region of human IgG1 (SEQ ID NO: 46 and SEQ ID NO: 47). The positive control and antibody were diluted to 10 μg/mL with 3% skim milk powder as the starting concentration, and then diluted by 3-fold gradient (11 gradients in total), and a blank well was set up and only the diluent was added. It was incubated at 37° C. for 1 h at 100 μL/well. The liquid in the well was discarded, washed 4 times with a plate washer, and patted dry on a flat paper. Goat anti-human IgG Fc was diluted with 3% skim milk powder at 1:20000, and incubated at 37° C. for 1 h at 100 μL/well. It was washed 6 times with a plate washer, and patted dry on a flat paper. TMB color developing solution was added at 100 μL/well, and wrapped with aluminum foil. Color development was performed at 37° C. in the dark for 8 min. Termination solution 1M HCl was added to terminate the color development reaction at 100 μL/well. Readings were taken at 450 nm on an ELISA reader.

[3] = target: T4, Human 4-1BB Fc (human, UniProt Q07011 24-186); test: bridging ELISA: Human 4-1BB Fc coated (0.3 ug/mL), antibody titrated, then Human-TNFR2-His (0.3 ug/mL), HRP anti-His detection (Example 4)
T4 construct: same catalogue and lot number as Human 4-1BB His; not shown: Fc
Procedure: Human 4-1BB Fc (manufacturer: Acro, CAT: 41B-H5258, LOT: 198-2146F1-W6) was diluted to 0.3 μg/mL with a coating solution (1×PBS, pH7.4) and coated into a 96-well ELISA plate at 100 µL/well at 4° C. overnight. The coating solution was poured off. Each well was washed with 1×PBST at 300 μL, washed 4 times with a plate washer, and patted dry on a flat sheet. It was blocked with 3% skim milk powder at 300 μL/well, and incubated at 37° C. for 1 h. The blocking solution was poured off, washed 4 times with a plate washer, and patted dry on a flat sheet. […] Starting at 50 nM, which was used as the initial concentration for 3-fold dilution, a total of 10 gradients were diluted, and a blank well was set up and only the diluent was added. It was incubated at 37° C. for 1 h at 100 μL/well. The liquid in the well was discarded, washed 4 times with a plate washer, and patted dry on a flat paper. Human-TNFR2-His (manufacturer: Sino, CAT: 10417-H08H, LOT: LC15NO0412) was diluted to 0.3 μg/mL, 100 μL was added to each well, and incubated at room temperature for 1 h. The plate was washed 3 times with PBST, and then the HRP-labeled his antibody was diluted with sample diluent at 1:5000, 100 μ L was added to each well, and incubated at room temperature for 1 h. It was washed 6 times with a plate washer, and patted dry on a flat paper. TMB color developing solution was added at 100 μL/well, and wrapped with aluminum foil. Color development was performed at 37° C. in the dark for 8 min. Termination solution 1M HCl was added to terminate the color development reaction at 100 μL/well. Readings were taken at 450 nm on an ELISA reader.

[4] = target: T1, Human-TNFR2-His; test: ELISA: Human-TNFR2-His coated (0.1 ug/mL), antibody titrated, goat anti-human IgG Fc detection (Example 2); remark: listed apart in the source
Procedure: as §1

[5] = target: T2, Human TNFR2 mFc; test: bridging ELISA: Human TNFR2 mFc coated (0.3 ug/mL), antibody titrated, then Human 4-1BB His (0.3 ug/mL), HRP anti-His detection (Example 5)
Procedure: Human TNFR2 mFc (manufacturer: Kaixia, CAT: TN-HM3R2, LOT: 031202) was diluted to 0.3 μg/mL with a coating solution (1×PBS, pH7.4) and coated into a 96-well ELISA plate at 100 μL/well at 4° C. overnight. The coating solution was poured off. Each well was washed with 1×PBST at 300 μL, washed 4 times with a plate washer, and patted dry on a flat paper. It was blocked with 3% skim milk powder at 300 μL/well, and incubated at 37° C. for 1 h. The blocking solution was poured off, washed 4 times with a plate washer, and patted dry on a flat paper. […] Starting at 50 nM, which was used as the initial concentration for 3-fold dilution, a total of 10 gradients were diluted, and a blank well was set up and only the diluent was added. It was incubated at 37° C. for 1 h at 100 µL/well. The liquid in the well was discarded, washed 4 times with a plate washer, and patted dry on a flat paper. Human 4-1BB His (manufacturer: Acro, CAT: 41B-H5258, LOT: 198-2146F1-W6) was diluted to 0.3 μg/mL, 100 μL was added to each well, and incubated at room temperature for 1 h. The plate was washed 3 times with PBST, and then the HRP-labeled his antibody was diluted with sample diluent at 1:5000, 100 μ L was added to each well, and incubated at room temperature for 1 h. It was washed 6 times with a plate washer, and patted dry on a flat paper. TMB color developing solution was added at 100 μL/well, and wrapped with aluminum foil. Color development was performed at 37° C. in the dark for 8 min. Termination solution 1M HCl was added to terminate the color development reaction at 100 μL/well. Readings were taken at 450 nm on an ELISA reader.

[6] = target: T3, Human 4-1BB His; test: ELISA: Human 4-1BB His coated (0.2 ug/mL), antibody titrated, goat anti-human IgG Fc detection (Example 3); remark: listed apart in the source
Procedure: as §2

[7] = target: T1, Human-TNFR2-His; test: ELISA: Human-TNFR2-His coated (0.1 ug/mL), antibody titrated, goat anti-human IgG Fc detection (Example 2); remark: listed apart in the source
Procedure: as §1

[8] = target: T3, Human 4-1BB His; test: ELISA: Human 4-1BB His coated (0.2 ug/mL), antibody titrated, goat anti-human IgG Fc detection (Example 3); remark: listed apart in the source
Procedure: as §2

[9] = target: T1, Human-TNFR2-His; test: ELISA: Human-TNFR2-His coated (0.1 ug/mL), antibody titrated, goat anti-human IgG Fc detection (Example 2); remark: listed apart in the source
Procedure: as §1

T3 sequence (Q07011 24-186 limits assumed): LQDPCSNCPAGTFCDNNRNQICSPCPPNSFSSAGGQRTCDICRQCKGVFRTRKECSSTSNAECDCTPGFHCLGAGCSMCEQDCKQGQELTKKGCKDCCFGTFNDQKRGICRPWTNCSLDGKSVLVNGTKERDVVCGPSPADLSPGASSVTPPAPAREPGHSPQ
T4 sequence (Q07011 24-186 limits assumed): as above

Binder	EC50 (read off the curve) [1]	EC50 (read off the curve) [2]	EC50 (read off the curve) [3]	EC50 (read off the curve) [4]	EC50 (read off the curve) [5]	EC50 (read off the curve) [6]	EC50 (read off the curve) [7]	EC50 (read off the curve) [8]	EC50 (read off the curve) [9]
B1	~0.1 nM	~0.3 nM	~0.3 nM						
B2		~0.1 nM	~0.3 nM	~0.6 nM	~0.2 nM				
B3			~0.5 nM		~0.2 nM	~0.07 nM	~0.1 nM		
B4								0.3 to 0.4 nM	~0.2 nM

Reference: patent US20260049151A1 (SHENGHE CHINA BIOPHARMACEUTICAL, published 2026)
